We go through five compounds from publication PMC6377654, “Screening and identification of a non-peptide antagonist for the peptide hormone receptor in Arabidopsis” (Communications Biology, 2019).

In assay [1] the target is T1, BAM1 (Arabidopsis thaliana, UniProt O49545).
T1 construct: BAM1-HT: Met1 to Ile700 region (signal peptide, 22 LRRs, transmembrane domain), cytoplasmic kinase domain replaced with HaloTag; expressed in tobacco BY-2 cells, immobilized on HaloLink Sepharose beads
T1 sequence (O49545 1-700): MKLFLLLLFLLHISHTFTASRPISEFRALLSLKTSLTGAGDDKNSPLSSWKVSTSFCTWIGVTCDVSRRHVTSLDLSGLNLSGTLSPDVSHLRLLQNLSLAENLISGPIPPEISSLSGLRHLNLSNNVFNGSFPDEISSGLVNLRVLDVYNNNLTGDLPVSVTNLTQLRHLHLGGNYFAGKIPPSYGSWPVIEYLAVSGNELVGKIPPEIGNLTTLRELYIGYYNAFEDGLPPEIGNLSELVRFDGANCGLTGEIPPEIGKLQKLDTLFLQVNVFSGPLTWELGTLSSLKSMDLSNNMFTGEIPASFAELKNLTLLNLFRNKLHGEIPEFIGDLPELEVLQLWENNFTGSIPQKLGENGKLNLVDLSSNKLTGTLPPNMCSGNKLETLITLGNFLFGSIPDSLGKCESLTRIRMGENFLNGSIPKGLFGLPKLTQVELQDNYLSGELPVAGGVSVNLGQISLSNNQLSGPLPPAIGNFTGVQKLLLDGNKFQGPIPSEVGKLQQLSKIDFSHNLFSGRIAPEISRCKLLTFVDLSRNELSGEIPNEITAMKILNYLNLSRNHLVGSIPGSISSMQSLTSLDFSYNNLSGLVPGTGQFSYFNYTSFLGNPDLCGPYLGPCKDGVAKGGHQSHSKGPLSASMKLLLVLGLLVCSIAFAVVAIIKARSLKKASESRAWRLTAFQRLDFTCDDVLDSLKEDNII
As to the kind of experiment: competition binding of fluorescent Alexa488-CLE9 on bead-immobilized BAM1 (confocal imaging); confirmed by competitive photoaffinity labeling with […]ASA-CLE9 and […]ASA-[Ara3]CLV3.

The target in assay [2] is BAM2 (Arabidopsis thaliana) (UniProt Q9M2Z1). As to conditions: cited from earlier work.
In assay [3] the target is BAM1 (Arabidopsis thaliana) (UniProt O49545). The following applies: cited from earlier work.
Assay [4] has as its target CLV1 (Arabidopsis thaliana) (UniProt Q9SYQ8). The following applies: cited from earlier work.
The target in assay [5] is BAM1-HaloTag (recombinant BAM1 in which the cytoplasmic kinase domain was replaced with HaloTag) (Arabidopsis) (UniProt O49545). Briefly: cross-linking; photoaffinity labeling as a3, in the presence of 10 μM NPD12704.
The target is the same in assay [6]. Briefly: cross-linking; photoaffinity labeling as a3, in the presence of 100 μM NPD12704.

Sequence of BAM2 (Arabidopsis thaliana) (Q9M2Z1 23-636): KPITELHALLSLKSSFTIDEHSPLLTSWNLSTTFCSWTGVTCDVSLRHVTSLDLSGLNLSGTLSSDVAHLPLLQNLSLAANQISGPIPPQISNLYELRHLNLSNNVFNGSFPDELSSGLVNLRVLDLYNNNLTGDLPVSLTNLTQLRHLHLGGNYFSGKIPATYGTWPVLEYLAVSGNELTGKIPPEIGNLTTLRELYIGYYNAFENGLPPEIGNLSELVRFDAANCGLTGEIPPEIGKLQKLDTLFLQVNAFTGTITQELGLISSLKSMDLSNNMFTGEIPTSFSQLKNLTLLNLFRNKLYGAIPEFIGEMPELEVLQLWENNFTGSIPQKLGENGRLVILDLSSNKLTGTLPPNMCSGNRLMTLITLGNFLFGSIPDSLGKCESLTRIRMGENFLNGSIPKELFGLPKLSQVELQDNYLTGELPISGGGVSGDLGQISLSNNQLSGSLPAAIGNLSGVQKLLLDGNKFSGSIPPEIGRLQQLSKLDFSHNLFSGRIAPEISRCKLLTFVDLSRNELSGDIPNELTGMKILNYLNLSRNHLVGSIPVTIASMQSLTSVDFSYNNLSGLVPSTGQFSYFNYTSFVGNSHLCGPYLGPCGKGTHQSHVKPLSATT
Sequence of CLV1 (Arabidopsis thaliana) (Q9SYQ8 25-638): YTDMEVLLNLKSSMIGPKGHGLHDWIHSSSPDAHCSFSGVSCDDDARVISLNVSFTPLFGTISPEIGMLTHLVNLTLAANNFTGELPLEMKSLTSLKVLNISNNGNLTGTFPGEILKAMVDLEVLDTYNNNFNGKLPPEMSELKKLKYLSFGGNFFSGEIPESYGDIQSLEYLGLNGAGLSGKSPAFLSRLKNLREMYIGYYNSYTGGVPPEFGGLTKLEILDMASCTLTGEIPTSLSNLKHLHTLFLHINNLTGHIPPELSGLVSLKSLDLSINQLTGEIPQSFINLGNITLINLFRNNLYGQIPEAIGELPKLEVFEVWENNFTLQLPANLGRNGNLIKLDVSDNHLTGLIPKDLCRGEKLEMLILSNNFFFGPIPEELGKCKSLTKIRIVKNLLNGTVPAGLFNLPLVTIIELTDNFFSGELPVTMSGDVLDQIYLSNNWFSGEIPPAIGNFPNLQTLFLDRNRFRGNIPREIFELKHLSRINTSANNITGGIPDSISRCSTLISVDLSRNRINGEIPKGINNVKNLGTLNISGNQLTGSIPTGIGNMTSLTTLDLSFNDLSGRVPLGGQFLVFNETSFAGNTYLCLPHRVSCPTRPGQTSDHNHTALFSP

The term IC50 denotes the concentration that gives 50% inhibition. Compound `CNC(=S)Nc1cc(OC)c(OC)cc1Cc1nccc2cc(OC)c(OC)cc12` [NPD12704] had an IC50 in assay [1] of 26000 nM. That is a double-digit micromolar value.

Broadly, the Kd is the free concentration of one partner at which half of the binding sites on the other are occupied at equilibrium, for simple one-to-one binding. Regarding CLE9 (from UniProt Q9FZE4), the figures for the dissociation constant (Kd) in assay [2] and in assay [3] were 11.9 nM and 1.8 nM, respectively. [Ara3]CLV3 (from UniProt Q9XF04): in assay [4], the dissociation constant (Kd) is 1 nM.

Regarding [^125I]ASA-CLE9 (peptide), the cross-linked band, percent of the control, with 10 μM NPD12704 (% of the control) in assay [5] is 62. Also, the cross-linked band, percent of the control, with 100 μM NPD12704 (% of the control) in assay [6] amounted to 33. With [^125I]ASA-[Ara3]CLV3 glycopeptide, in assay [5], the cross-linked band, percent of the control, with 10 μM NPD12704 (% of the control) was found to be 46.
